experiment: soluble on expression in E. coli; label from the status in PepcDB or PDB records

Soluble on expression in E. coli, not soluble:
MGSDKIHHHHHHMRNWLLPEYIEDVLPRDAYRIEKIRRLIMDMLFAHGYQFVMPPLLEYVESLLAGSGSGMNLRMFKVVDQLSGRMMGLRADMTPQAARIDAHLLNISGVTRLCYASSVVHTVPDEITRTREPFQVGAELYGHSGIESDLEIQCLLLECLSVSGIHSIHLDLGHIRVFRSLIRDSGIKPEFEMELYAALWAKDISSLKELVRTGLNKRLTRSVQNALLLLPELYGDGTVLLSARQHLPDFPEIGEALDQLEHVARILQPYVDRITFDLADLRGYHYHTGMVFAVYTPGCPAPIALGGRYDEIGKSFGRARPATGFSLDLKQLSQLTDMNGYPSGILAPWKPEDEKLAAMVRQLRAEGHIVVTELPGEENQEVTGCDRKLVFRNGNWEIDPVTG
MGSDKIHHHHHHMRPATALSVTACGPVSTSRPRAASRAAIRLSSGERRFLIDIDVSKPRLRPMTAMTPTLALERSAASGKVAPTPADLSITVRDRRFGRNSPPGRWWLAGDPVATAWHNALSATFPRGEAFFIEAVKAHREGASPKLEAEIRAFVKQEINHTREHIAFNRAAENAGYDIARIDKRVEEMLALTKDRPVILNLAATMALEHYTAMMAHEFLANPAHFAGAEQEAADMWRWHAIEEIEHKGVAYDTWLHATRDWSRWKRWKVKSLMMVVVTKNFITHRVEDTLDLLAQDGLTGAKWKWRLAAYLLWKPGVIRRILPAWLGYFLPGFHPWKHDDRALIGKADSEFTDAVMPG
MGSDKIHHHHHHMRPTQKGDYLNPMSDLFQDYSEAAARSGAYDEMFAQGHVARRSYGQVSGALRELSLADVTARADSMARTFLDRGVTFDYAGEERPFPLDIVPRVIPADEWNVLERGVAQRVKALEAFLNDVYGRMAVVTDGVIPRQLVTTSAHFHRAVHGFEPSGGVRVHVSGIDVVRDAAGTFRVLEDNVRVPSGVSYVLENRRAMAKGLPEAFGQQHIRPVEEYPRRLLSALRKTAPAGVDDPTVVVLTPGVFNSAYFEHTLLAGLMGVELVEGRDLICRGNRVYMRTTAGEQRVDVIYKRIDDDFLDPLQFRSDSMLGCPGLVNAARAGGVTIANAVGNGVADDKLVYSYVPDLIRYYLHEEPIIANVDTFRLEEKEAREHVLDRLDELVVKPVDGSGGKGLVIGPDATKDELDALRKRVIADPRGWIAQPVLQLSTVPTLSGDKFGPRHVDLRPFAVNDGDDVWVLPGGLTRVALKEGSLIVNSSQGGGSKDTWVLADSPQLPAEIIPRQSVTVREQVSVWPVESNWRDRQTEQQQ
MGSDKIHHHHHHMRRCPLCTSEETAPFYQDRKRCIYRCKRCMLLFADANSHLPPSAEVKRYRSANSKDKPLQQFLSSLITQCEQQVQGPLLGLNFGRLLNPQAIDAIKARGHQLNQYDPHFAPDHTLLRLEYDFICCYRVFEHFRFPGKEWQLLCSLLKPGGWMAISTQLLTELQGFPKWHHKNNLTHVSFYQQATFQYLASQAEFRLLFASKDLILVQKPTGSGITRDPSSLI
MGSDKIHHHHHHMRRSDGRLLKSLSPFVRIIPHIMTKRNDAQNFYKQVVAVDKIDQYIKEKKDQGIRLNYLHLFIAVYVRVLAQRPQLNRFIMNNKIYTRYDIRISMAIKRLLKDDGEETTVKFLFSGLESIEEIVKIVDQTIEEGCAAGAANEVDTIAQRIMALPNSQVKLLVGTLKWMDRHNLLPKKIIEASPFHTSLFFTYLKSINLDFIYHHLYDFGTTGIFVALGKSKKLPVVEEDQVVVKKCCEIGYVLDERICDGLYYSNSFKLVKKYLANPYLLDERLEKVEEDVN
MGSDKIHHHHHHMRSNNNNPLTRDEILSRYFPQYRPAVATSQGLSGGSCIIAHDTHRVVLRRHHDPDAPPAHFLRHYRALSQLPASLAPRALFYTPGWMAVEYLHGVVNSALPDADELAALLYHLHQQPRFGWRIALSPLLAQYWSCCDPARRTPFWLRRLKQLQKNGEPRPLRLAPLHMDVHGDNIVLTSAGLRLIDWEYAGDGDIALELAAVWVEDERQHRQLADAYAARARIDARQLWRQIRLWHPWVIMLKAGWFEYRWRQTGEQQFIRLADETWRQLRMKG
MGSDKIHHHHHHMRSPNFYTYAFLNTPDVPLRLPSGNLGQLLLINGNNISAVVEPGISLESSQNNDEEVIKMVLAHDRVICELSQQTTVLPLRFGTYFNSEETLLNHIESHAQEYQKKLDNIQGKTEYTLKLIPRKFEELAKISGGHGRDYFLAKKLHYEHQKSFIGDQNREKHHLINLMMDIYRSSAIIQDYVEEVRLHLLVDRHDKALLFKQVLTLQEKCPHWNLILGEPLPPYHFV
MGSDKIHHHHHHMRTSTHAEVLTYSDEQTSVRHLQNSAPLALKHTISPAEIRDNLPAGQGGVGFLFHATDWDTLSFSFHNVKHRNASFEEELWRTKPFIASPIYSGSQIIGANIACPVPLELWLGSPRGIKRFRETQFFPALELARQAGLNMVAMGASTPYACNYGALPRDTRPPHITTGHAATAAMLKDWAMHCCNELDLEFGKSKLALFGAAGRLGTTVAKYALYKDAPRELVLIDLPDKVNLLTEQAKELMASDLLGKTRVSVHTFSPHTPLPDFDGAILASSTSVPYLTAADLRRAQFWIDDSHPRAASVEAELASRGHTLYIECFARGPAGLNTTFPFRLPTTRDCYTCFAEGYSAWQEGIASDFIIGSPPVWSVSYTHSLLKKYGFAVGPFHGKNGSPITLDTQLRGKQELMSS
MGSDKIHHHHHHMRVEEAKYLAKKIMMAGEIPLLVGHFGVGKTDIARDIARETERKLIILVLSQMEPGDLIGLPARTEEKTVFLKPDWWPESGDTILFLDEINRAHRSVRNAIMQLLVDRRIHNHILPEGTWIMAAMNPPEEEYDQADLITDPAFISRFFILEVNPDVSEWLEWAEKNNVSKEVRDFIRDYPEFLFSERSLSLRTSLKPSPRSWYKLSNVLKTLTDDEKEKYGYVIAAGIVGPEAAKAFYDSFFQRVKIPSVESVLFDGKIENLEDIHAANTLVLRIVDFLSKVDVRTLERHLDDVSKNLVRLSEIMPKESFYGVLRFLVDEAQKEGEKSWIFDKILEKMLEREDMRKMVNEL
MGSDKIHHHHHHMRVFIIHLSPKTCQNFSLKETHITPLLESLKLQGISYEIFDAIYSKISPTQLHPLILEHLHPSFMVEDLWAFCKNKKHPPCALKNFFYAIKHCGKRMGFGELGCYASHYSLWQKCIELNEAICILEDDIIIKDRFKESLEFCRHHINELGYIRLMHLEENVAKQKTPVKGVSQILNFKDGIGTQGYVLAPKAAQKLLKYSAKEWVMPIDCVMDRHYWHGVKNYVLEEFAIACDGMNAQNSNTEKQRPKKLPLSIRIGRSLHKSTIKFLDKVFRYSPKLIRIGKH
MGSDKIHHHHHHMSAPTITTLGEFLQAGQAEYKIFDIGRCLTELSQEEFAAIEQQQRPYPYPIARQAQLAILFQHKQHDQQPFIWFLQFPLDERGLLNIAARNQYLEYVVNALGHEITGEMTEEQQKQLQQNPYLLTPNEQQRAALHARVQRQQKLSPSIHFETAEAYLKQPESGIDWQQMGLQGLHDCAARLEQLPELSKAIATHFSHYPSAVRQPLAVALEQQSLTPPVRDALLQNLESSNAQLCTDSLRALASASAHPRVKKAVNKLVPHANADQLVVIAARLWPVLCEEQNLLRYLDAIAELDNSLFDALFQDIIALPDIRPLLLSIIAQQKQSAAVNEALNRLKQQTQGS
MGSDKIHHHHHHMSDASKPDSNEVREIRINPVVPGESVLVATARSMRPKKAEELAPRDTRKHVETCPFCRGNEHKTPPAILTWPDTGDWQIRMVENLYPVLGDDRAQAGFTFGLQQTIDGYGRHEVIIDHSEHGIAVQDMAETHLAALFGVYQTRMRQLFDSDERLKYVLVFKNFGPAAGASIPHTHSQVIAMPVVPENVDAEVRNSATHYAKHHHCIFCALIDEALTFEATIYDRNSGAVRRKINVGQYVVERGEKFIAIKPFASRYEWEVHILPLAHQADFLDVRGEDLADLARVMKRTMARLDAVIGGAQYNFFLHSVPHDAQQATHAPSYHWHLEICPRTSIPTGFELGSGLFVNTINPEEAAERLRSVELPAR
MGSDKIHHHHHHMSDEWIKIFESDFYVREMIKVWDEGEKWANWIDEVVSKYKLEKKVLDIPCGIGRVSYFLANRGYKVTGIDISERMISMARSNIQNGKFIVGDMRKIKEIIGNEKYDLVINIYNSLGYYSEEDDLKILESLRDSTRKIVVINLDNRDYIIYNRPNEYYTYIPPYLVYSKVEFEQETSRLKIYRKYYLNDKEVGEMIYEQRLYSIHEILALLKKAGLQPIEVLSGYSWKKFSIMDPEMTIIATPA
MGSDKIHHHHHHMSDLITLAQLSQGYRYNSDSLILADFILKQGIKGAVFDVGAGCGIIGILLKKNIANLSLSLIDIQKENIELIEKNLKSNKIQGDIFHDDFNQFQIIKKFDFIVCNPPFYRQGAYKSEDQHKAISKFQEFLPLHSFLAKTNSMLKPNGTLYFCYEALALDEICFILKDMKMKITKLCFVHTHQSKKARLVLIQVKKGSKSPCEILPPFFVYENEILSKQMQEIHLRFRLKSYDI
MGSDKIHHHHHHMSDLTVNDGSYQQLLDRIGECLALGQQRSFEQVNSVLVETYWQIGRYIVEFEQAGKERAEYGSKLLQVLSRDLKAAYGKGFSRSNLQYMRLFYLNYENCQTLSGKLSWSHYTELLAISDDLARSFYEQQCIQDRWSVRELKRQKDSALFERVALSKDRAEILALAKDGQRIESARDVVKDPYVFEFLDLPDRNYRESELENRLIAELEKFLLELGKGFAFIGQQYRITLNNTHFFVDLVFYHRILKCFVLIDLKTRAVSHQDIGQMNMYLNYFRAEENMEDDNEPIGIVLARDKDEILVEYAKGGISNQLFVSRYQLYLPDPEVLKQELKRLLSVNDG
MGSDKIHHHHHHMSEEAFDAIIVGAGLAGCVAAYVLAKEGADVLVIERGNYAGSKNMTGGRLYAHSLERIIPGFAKEAPIERKVTKEKVTFLTDDTGVTLDYHNGRDQSPLQESYTLLRGEFDQWLMGKAEEVGAQFITGIRVDEILTQDGKVIGVKADGDELTAKAVILAEGVNPILGEQLGMVKPKVSADAMAVGAKELIELPESVIKDRFNLKDDEGAAWLFAGSPSNGLMGGGFIYTNRNSISLGIVCGLHGIGESDKSVPQMLEDFKNHSLIKPLIEGGKLLEYSGHVVPEAGLNMVPKLVDHGVLITGDAAGFCLNVGYTVRGMDLAIASGEAAAKAVLAARAQQDFSAQGLSSYQSLLEESFLMKDMKLYKQLPAFMETPRIFNQYPKMVADIMHEMFIIDGTPAQPLRKTLLKHCKEVGFMNLIKDGYKGVTSI
MGSDKIHHHHHHMSENIRALSRGLNVLEFLSETGGATRQATVAHFGLSRPTIYRLLGTLEKSGLISLGDDGVYRPTIATRALKEGLTDDVWALWAAEPILLELQKEVVWTSEITTFDAYSCTMLKRDTTHSLNPYHINLLDFDDNHRSMLTSACGLAYLAFCPQQQRAQILEHLGHFGDRTQSDSQRPDSQRGAGAHTRNLINKVISDGYAVEQRNSYPLIAAIAVPIRYDNRVLACLSIVWLPRAVKLQDGITQFLPALKRAQSFIEQKLLDDASIEYDTNFTAKYVHHGQQHELI
MGSDKIHHHHHHMSERKPIPKSVKKVLRSEVGFGCPVKGCGNPYLEYHHFDPPVSVKPHNEPEGMIALCAQHHKKADGGAYTIEQLHALKKDKANAKLVRGNLDWLRKDLLAVVGGNFYYETPRIITIDNIDLVSLVRDEDGYLRLNVNMLSLEPDERIIIEENSWENIGSPLDLRSPPQGKELEISYHNGDYLYLRFIELQSFEQAQQRYETDVFKDITFPITAVEVNMTIAGTRIELTPISSQLGGIKMTGCLSSHCGGGVVIQNSGIQWKQNPVWKRKTLVEETEHPNVVKVNFGRR
